Results published in paper PMC3536657.

Tests used:
[1] = biological target: b12 chimeric IgG, germline heavy chain paired with the mature light chain (human); assay: BLI; antibody-capture kinetics: IgG on biosensors, 2-fold serial dilutions of Env; mean of curves with R^2 >= 0.95
[2] = biological target: b12 chimeric IgG, mature heavy chain paired with the germline light chain (human); assay: as above
mature IgG b12 (human) = assay: as above
[3] = biological target: HXB2 gp120 (HIV-1 clade B, isolate HXB2) (UniProt P04578)
[4] = biological target: QH0692 gp120 (HIV-1 (clade B, isolate QH0692))

Sequence of mature IgG b12 (human) (heavy, as listed by the source, chain 1 of 2): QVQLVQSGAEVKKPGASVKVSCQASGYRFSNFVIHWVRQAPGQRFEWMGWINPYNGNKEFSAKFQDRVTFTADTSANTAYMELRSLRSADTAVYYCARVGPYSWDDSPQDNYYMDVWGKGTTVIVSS
Sequence of mature IgG b12 (human) (light, as listed by the source, chain 2 of 2): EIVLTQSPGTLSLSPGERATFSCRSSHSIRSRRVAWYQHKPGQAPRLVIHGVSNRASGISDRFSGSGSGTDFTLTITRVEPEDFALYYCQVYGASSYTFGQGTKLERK
Sequence of b12 chimeric IgG, mature heavy chain paired with the germline light chain (human) (light, as listed by the source, chain 2 of 2): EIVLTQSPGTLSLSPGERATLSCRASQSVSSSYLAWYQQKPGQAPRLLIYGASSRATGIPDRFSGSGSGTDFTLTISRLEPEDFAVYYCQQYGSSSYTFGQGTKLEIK
Sequence of b12 chimeric IgG, germline heavy chain paired with the mature light chain (human) (heavy, as listed by the source, chain 1 of 2): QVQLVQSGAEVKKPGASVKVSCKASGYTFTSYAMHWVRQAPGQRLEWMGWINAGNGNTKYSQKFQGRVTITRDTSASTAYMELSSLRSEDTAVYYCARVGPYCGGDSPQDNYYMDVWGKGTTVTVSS

Substance | Ka [1] [M⁻¹] | Ka [2] [M⁻¹] | Ka (mature IgG b12 (human)) [M⁻¹] | Kd (mature IgG b12 (human)) [nM] | neutralisation of HXB2 virions (luciferase reporter cells), IC50 [3] [µg/mL] | neutralisation of QH0692 virions (luciferase reporter cells), IC50 [4] [µg/mL]
QH0692 gp120 (natural protein) | 1.39e+07 | 7.56e+06 | 2e+09 | 2 | – | –
mature IgG b12 (antibody) | – | – | – | – | 0.002 | 0.22
